Data as given in US6465254, “Mutant loxP site and applications thereof” (Sumitomo Pharmaceuticals Company, Limited).

Legend:
Conditions in all cases: tags: expressed from recombinant adenovirus AxCANCre in 293 cells
Cre recombinase [1] = target: T1, Cre recombinase (UniProt P06956 P06956:1-343); test: self x self; intermediate 4
Method: (§1) Substrate DNA (1 μg) prepared in (3) and cell extract containing Cre (10 μl) prepared in (1) were incubated at 37° C. for 30 min in a 50 μl volume of buffer containing 50 mM Tris-HCl (pH 7.5)/10 mM MgCl2/1 mg/ml bovine serum albumin/1 mM phenylmethylsulfonyl fluoride (PMSF)/5 μg/ml aprotinin. After completion of the reaction, 45 μl of TE buffer (pH 8.0) and 5 μl of EDTA solution (pH 8.0) were added to the reaction mixture, extracted with phenol/chloroform and with chloroform, followed ethanol precipitation. The recovered DNA was dissolveld in 30 μl of TE buffer (pH 8.0) containing RNase A (20 μg/ml). Half volume thereof was digested with restriction enzyme BsaHI. The DNA bands detected by ethidium bromide (EtBr) staining after agarose gel electrophoresis, were analyzed.
(§2) Before recombination mediated by Cre, restriction enzyme BsaHI digestion of linear substrate DNA (approx. 4.1 kb) generates four bands of 2.7 kb, 610 bp, 380 bp and 360 bp. On the other hand, as a result of recombination of substrate DNA mediated by Cre, a circular DNA of approx. 4.0 kb containing one mutant loxP, and a linear DNA of approx. 50 bp consisting of only mutant loxP, are produced. Digestion of these DNA with restriction enzyme BsaHI generates four bands of 2.7 kb, 920 bp, 380 bp and 50 bp (refer to FIG. 6).

Cre recombinase [2] = target: T1, Cre recombinase; test: self x self; intermediate 6
Cre recombinase [3] = target: T1, Cre recombinase; test: self x self; intermediate 3
Cre recombinase [4] = target: T1, Cre recombinase; test: self x self; intermediate 1
Cre recombinase [5] = target: T1, Cre recombinase; test: self x self; intermediate 1; remark: listed apart in the source
Method: as §1, §2

Cre recombinase [6] = target: T1, Cre recombinase; test: self x self; intermediate 6; remark: listed apart in the source
Method: as §1, §2

Cre recombinase [7] = target: T1, Cre recombinase; test: self x self; intermediate 4; remark: listed apart in the source
Cre recombinase [8] = target: T1, Cre recombinase; test: self x self; intermediate 5
Method: as §1, §2

Cre recombinase [9] = target: T1, Cre recombinase; test: self x self; intermediate 3; remark: listed apart in the source
Method: as §1, §2

T1 sequence (P06956 whole entry, one chain of several): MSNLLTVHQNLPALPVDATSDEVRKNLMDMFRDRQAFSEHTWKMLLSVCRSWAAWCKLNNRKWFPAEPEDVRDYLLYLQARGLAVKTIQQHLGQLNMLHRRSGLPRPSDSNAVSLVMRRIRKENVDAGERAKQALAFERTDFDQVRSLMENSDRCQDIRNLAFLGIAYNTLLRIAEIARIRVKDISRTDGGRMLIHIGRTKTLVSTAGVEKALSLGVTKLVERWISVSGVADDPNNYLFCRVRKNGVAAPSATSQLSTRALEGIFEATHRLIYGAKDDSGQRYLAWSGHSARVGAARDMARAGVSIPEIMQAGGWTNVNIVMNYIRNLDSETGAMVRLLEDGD

B1: mutant loxP #11 (dsDNA)
DNA 1: ATAACTTCGTATAGTGTATGCTATACGAAGTTAT
DNA 2: ATAACTTCGTATAGCATACACTATACGAAGTTAT
Cre recombinase [1]
  activity: 2 grade 0-9 final product

B2: mutant loxP #3372 (dsDNA)
DNA 1: ATAACTTCGTATAATTTATCCTATACGAAGTTAT
DNA 2: ATAACTTCGTATAGGATAAATTATACGAAGTTAT
Cre recombinase [2]
  activity: 1 grade 0-9 final product

B3: mutant loxP #4372 (dsDNA)
DNA 1: ATAACTTCGTATAATGGATCCTATACGAAGTTAT
DNA 2: ATAACTTCGTATAGGATCCATTATACGAAGTTAT
Cre recombinase [3]
  activity: 2 grade 0-9 final product

B4: mutant loxP #6373 (dsDNA)
DNA 1: ATAACTTCGTATAATGTAGTCTATACGAAGTTAT
DNA 2: ATAACTTCGTATAGACTACATTATACGAAGTTAT
Cre recombinase [4]
  activity: 2 grade 0-9 final product

B5: mutant loxP #62 (dsDNA)
DNA 1: ATAACTTCGTATAATGTAAGCTATACGAAGTTAT
DNA 2: ATAACTTCGTATAGCTTACATTATACGAAGTTAT
Cre recombinase [5]
  activity: 8 grade 0-9 final product

B6: mutant loxP #32 (dsDNA)
DNA 1: ATAACTTCGTATAATCTATGCTATACGAAGTTAT
DNA 2: ATAACTTCGTATAGCATAGATTATACGAAGTTAT
Cre recombinase [6]
  activity: 3 grade 0-9 final product

B7: mutant loxP #21 (dsDNA)
DNA 1: ATAACTTCGTATAACGTATGCTATACGAAGTTAT
DNA 2: ATAACTTCGTATAGCATACGTTATACGAAGTTAT
Cre recombinase [1]
  activity: 5 grade 0-9 final product

B8: mutant loxP #4271 (dsDNA)
DNA 1: ATAACTTCGTATAATGAATACTATACGAAGTTAT
DNA 2: ATAACTTCGTATAGTATTCATTATACGAAGTTAT
Cre recombinase [7]
  activity: 2 grade 0-9 final product

B9: mutant loxP #61 (dsDNA)
DNA 1: ATAACTTCGTATAATGTACGCTATACGAAGTTAT
DNA 2: ATAACTTCGTATAGCGTACATTATACGAAGTTAT
Cre recombinase [5]
  activity: 8 grade 0-9 final product

B10: mutant loxP #6272 (dsDNA)
DNA 1: ATAACTTCGTATAATGTAACCTATACGAAGTTAT
DNA 2: ATAACTTCGTATAGGTTACATTATACGAAGTTAT
Cre recombinase [4]
  activity: 2 grade 0-9 final product

B11: mutant loxP #2172 (dsDNA)
DNA 1: ATAACTTCGTATAACGTATCCTATACGAAGTTAT
DNA 2: ATAACTTCGTATAGGATACGTTATACGAAGTTAT
Cre recombinase [7]
  activity: 2 grade 0-9 final product

B12: mutant loxP #2373 (dsDNA)
DNA 1: ATAACTTCGTATAAGGTATTCTATACGAAGTTAT
DNA 2: ATAACTTCGTATAGAATACCTTATACGAAGTTAT
Cre recombinase [2]
  activity: 1 grade 0-9 final product

B13: mutant loxP #52 (dsDNA)
DNA 1: ATAACTTCGTATAATGTTTGCTATACGAAGTTAT
DNA 2: ATAACTTCGTATAGCAAACATTATACGAAGTTAT
Cre recombinase [5]
  activity: 9 grade 0-9 final product

B14: mutant loxP #43 (dsDNA)
DNA 1: ATAACTTCGTATAATGGATGCTATACGAAGTTAT
DNA 2: ATAACTTCGTATAGCATCCATTATACGAAGTTAT
Cre recombinase [8]
  activity: 6 grade 0-9 final product

B15: mutant loxP #63 (dsDNA)
DNA 1: ATAACTTCGTATAATGTAGGCTATACGAAGTTAT
DNA 2: ATAACTTCGTATAGCCTACATTATACGAAGTTAT
Cre recombinase [5]
  activity: 9 grade 0-9 final product

B16: mutant loxP #73 (dsDNA)
DNA 1: ATAACTTCGTATAATGTATTCTATACGAAGTTAT
DNA 2: ATAACTTCGTATAGAATACATTATACGAAGTTAT
Cre recombinase [9]
  activity: 1 grade 0-9 final product

B17: mutant loxP #51 (dsDNA)
DNA 1: ATAACTTCGTATAATGTGTGCTATACGAAGTTAT
DNA 2: ATAACTTCGTATAGCACACATTATACGAAGTTAT
Cre recombinase [5]
  activity: 9 grade 0-9 final product

B18: mutant loxP #2371 (dsDNA)
DNA 1: ATAACTTCGTATAAGGTATACTATACGAAGTTAT
DNA 2: ATAACTTCGTATAGTATACCTTATACGAAGTTAT
Cre recombinase [3]
  activity: 2 grade 0-9 final product

B19: mutant loxP #33 (dsDNA)
DNA 1: ATAACTTCGTATAATTTATGCTATACGAAGTTAT
DNA 2: ATAACTTCGTATAGCATAAATTATACGAAGTTAT
Cre recombinase [6]
  activity: 6 grade 0-9 final product

B20: mutant loxP #2171 (dsDNA)
DNA 1: ATAACTTCGTATAACGTATACTATACGAAGTTAT
DNA 2: ATAACTTCGTATAGTATACGTTATACGAAGTTAT
Cre recombinase [3]
  activity: 3 grade 0-9 final product

B21: mutant loxP #4371 (dsDNA)
DNA 1: ATAACTTCGTATAATGGATACTATACGAAGTTAT
DNA 2: ATAACTTCGTATAGTATCCATTATACGAAGTTAT
Cre recombinase [7]
  activity: 2 grade 0-9 final product

B22: mutant loxP #12 (dsDNA)
DNA 1: ATAACTTCGTATATTGTATGCTATACGAAGTTAT
DNA 2: ATAACTTCGTATAGCATACAATATACGAAGTTAT
Cre recombinase [6]
  activity: 3 grade 0-9 final product

B23: mutant loxP #72 (dsDNA)
DNA 1: ATAACTTCGTATAATGTATCCTATACGAAGTTAT
DNA 2: ATAACTTCGTATAGGATACATTATACGAAGTTAT
Cre recombinase [9]
  activity: 7 grade 0-9 final product

B24: mutant loxP #3171 (dsDNA)
DNA 1: ATAACTTCGTATAATATATACTATACGAAGTTAT
DNA 2: ATAACTTCGTATAGTATATATTATACGAAGTTAT
Cre recombinase [7]
  activity: 7 grade 0-9 final product

B25: mutant loxP #3373 (dsDNA)
DNA 1: ATAACTTCGTATAATTTATTCTATACGAAGTTAT
DNA 2: ATAACTTCGTATAGAATAAATTATACGAAGTTAT
Cre recombinase [2]
  activity: 2 grade 0-9 final product

B26: mutant loxP #4272 (dsDNA)
DNA 1: ATAACTTCGTATAATGAATCCTATACGAAGTTAT
DNA 2: ATAACTTCGTATAGGATTCATTATACGAAGTTAT
Cre recombinase [7]
  activity: 1 grade 0-9 final product

B27: mutant loxP #5272 (dsDNA)
DNA 1: ATAACTTCGTATAATGTTTCCTATACGAAGTTAT
DNA 2: ATAACTTCGTATAGGAAACATTATACGAAGTTAT
Cre recombinase [4]
  activity: 4 grade 0-9 final product

B28: mutant loxP #3271 (dsDNA)
DNA 1: ATAACTTCGTATAATCTATACTATACGAAGTTAT
DNA 2: ATAACTTCGTATAGTATAGATTATACGAAGTTAT
Cre recombinase [3]
  activity: 4 grade 0-9 final product

B29: mutant loxP #13 (dsDNA)
DNA 1: ATAACTTCGTATACTGTATGCTATACGAAGTTAT
DNA 2: ATAACTTCGTATAGCATACAGTATACGAAGTTAT
Cre recombinase [1]
  activity: 3 grade 0-9 final product

B30: mutant loxP #3272 (dsDNA)
DNA 1: ATAACTTCGTATAATCTATCCTATACGAAGTTAT
DNA 2: ATAACTTCGTATAGGATAGATTATACGAAGTTAT
Cre recombinase [2]
  activity: 2 grade 0-9 final product

B31: mutant loxP #53 (dsDNA)
DNA 1: ATAACTTCGTATAATGTCTGCTATACGAAGTTAT
DNA 2: ATAACTTCGTATAGCAGACATTATACGAAGTTAT
Cre recombinase [5]
  activity: 8 grade 0-9 final product

B32: mutant loxP #2273 (dsDNA)
DNA 1: ATAACTTCGTATAAAGTATTCTATACGAAGTTAT
DNA 2: ATAACTTCGTATAGAATACTTTATACGAAGTTAT
Cre recombinase [3]
  activity: 4 grade 0-9 final product

B33: mutant loxP #5373 (dsDNA)
DNA 1: ATAACTTCGTATAATGTCTTCTATACGAAGTTAT
DNA 2: ATAACTTCGTATAGAAGACATTATACGAAGTTAT
Cre recombinase [4]
  activity: 2 grade 0-9 final product

B34: mutant loxP #22 (dsDNA)
DNA 1: ATAACTTCGTATAAAGTATGCTATACGAAGTTAT
DNA 2: ATAACTTCGTATAGCATACTTTATACGAAGTTAT
Cre recombinase [1]
  activity: 5 grade 0-9 final product

B35: mutant loxP #42 (dsDNA)
DNA 1: ATAACTTCGTATAATGAATGCTATACGAAGTTAT
DNA 2: ATAACTTCGTATAGCATTCATTATACGAAGTTAT
Cre recombinase [8]
  activity: 6 grade 0-9 final product

B36: mutant loxP #31 (dsDNA)
DNA 1: ATAACTTCGTATAATATATGCTATACGAAGTTAT
DNA 2: ATAACTTCGTATAGCATATATTATACGAAGTTAT
Cre recombinase [8]
  activity: 7 grade 0-9 final product

B37: mutant loxP #23 (dsDNA)
DNA 1: ATAACTTCGTATAAGGTATGCTATACGAAGTTAT
DNA 2: ATAACTTCGTATAGCATACCTTATACGAAGTTAT
Cre recombinase [6]
  activity: 5 grade 0-9 final product

B38: mutant loxP #41 (dsDNA)
DNA 1: ATAACTTCGTATAATGCATGCTATACGAAGTTAT
DNA 2: ATAACTTCGTATAGCATGCATTATACGAAGTTAT
Cre recombinase [5]
  activity: 7 grade 0-9 final product
